We go through one molecule from US20170022269A1.

A value given as a limit tells only on which side of the number the result lay.

Assay [1] concerns the target Aβ(1-42) fibrils (human) (UniProt P05067). Nature of the assay: co-pelleting with Aβ(1-42) fibrils, SDS-PAGE, optical density of the heavy chain in pellet / (pellet + supernatant).
The target in assay [2] is Aβ(1-40) monomer (human). Nature of the assay: dot blot densitometry, antibody 0.2 µg/ml; column Aβ(1-40) monomer, 0.1% NaOH.
The target in assay [3] is Aβ(1-42) fibrils (human) (UniProt P05067). Nature of the assay: dot blot densitometry, antibody 0.2 µg/ml; column Aβ(1-42) fibril.
Chain of Aβ(1-42) fibrils (human) (P05067 672-713): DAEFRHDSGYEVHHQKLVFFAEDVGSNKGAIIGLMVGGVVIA

Chain of Aβ(1-40) monomer (human) (peptide, as listed by the source): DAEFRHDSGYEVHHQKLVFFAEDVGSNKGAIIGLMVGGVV

B1: monoclonal antibody 3B10 (antibody, part only; not given: light chain, V domains shown, part only)
VH: QVQLQQSGPELVKPGASVKMSCKASGYTFTDYVIHWVKQKPGQGLEWIGYINPYNDGTQYNEKFKGKATLTSDKSSSTVYMELSSLTSEDSTVYYCTVEGGTWDGYFDVWGTGTTVTVSS
As to B1, the antibody bound to fibrils [%] in assay [1] stood at 5%. Further, the relation between recognition of Aβ(20-42) globulomer and the respective Aβ form in assay [2] and in assay [3] was > 10000 in each case.
